B1: ΦPA3 gp2 (ChmB), purified (natural protein, Pseudomonas phage ΦPA3, UniProt F8SJN3 1-197, looked up)
chain: MTDVAYPYLETSTLFDNIVKGQILEPDAESPQLSHVLKITDAAGIGHEVTFFQLSILLAILQGNKHELTDNQPHQYLVNQWVLTDLHNIYDEGYVMTSHRVIVDHVEEVATFTGTLVHQKTIRSHPNWQEGFTAPVKEFEFNLENFGIFHQIVFSQCIANLTPELDWVARTFGHSYIFEMEGRNVRVASIQEEGTTE
B2: 201Φ2-1 gp2 (ChmB), purified (natural protein, Pseudomonas phage 201Φ2-1, UniProt B3FJX8 1-179, looked up)
chain: MTLIAKPAVPDTEVLNHIGRDLLLKDEDGSFKLQRHLKILTEEGLVHQVSFAQVDGLLNILDSTRETPPCSPLQYLITHYDLKDLVELGKDGWLVPEYQVVVMHSSKTVRFEGKLTRVGSIDKEFTFALGGFDFIQQLSLARCIASLGKEFEQVIGTFDCTYVFKTGPDGISVSTDIGV
B3: gp2 homolog of phage Psa21 (gp3), purified (natural protein, Pseudomonas phage Psa21, UniProt A0A481W4E6 1-229, looked up)
chain: MNPVYDIFNDIANNMVTVENKEEFLSNTVRLVGASGKEHVLSIAQAQLLLGVLDGSHQFLTDYNPLEFLLFSYQFQDKIKLKYVAVQYQIIYDADDDSIFVSGVTRHPMTVVGHPDYVAGASVPIETFQTTIPNVGLYGGLALVNCIATQSPDFAPVKGSFGGSFIFEFDGGKQSIRRYVPAEIDEPVIHKEELQEALDEAVKKFVPSAAPKVEFNGIKDTSTKTEQEI

Target: the molecule itself
Test: SEC-MALS; 100 μL of purified protein at 5 mg/mL on Superdex 200 Increase 10/300 GL in buffer GF (300 mM NaCl, 1 mM DTT)

Protein | stoichiometry N
B1 | 2
B2 | 2
B3 | 2

Reference: paper PMC10643120 (Nature structural & molecular biology, 2023)
